Assay results: patent US8084213, “Selection” (Domantis Limited)

Columns and labels:
[1] = molecular target: Vh(DOM1h-10-27)-scArc-HA (Phage P22 / human Vh); experiment: DNA co-captured on protein A and human TNF receptor, not BSA; conditions: tags: N-terminal Vh dAb fusion, C-terminal HA; chain copies: 2 scArc per operator (inferred)
Protocol: The functional activity of the V_H(DOM1h-10-27)-scArc fusion protein can be assessed by PCR amplification of the DNA co-captured during the V_H-dependent immunoprecipitation of the in vitro translation reaction product. As in the case of $V_\kappa$-scArc fusion constructs, 1 µl of 1.7 nM template in 0.2 mg/ml tRNA is added to 25 µl EcoPro T7 in vitro translation mix (Novagen), supplemented with 0.75 µl of 100 mM oxidized glutathione (Sigma), and incubated at 25° C. for four hours. During the translation reaction the streptavidin-coated PCR tubes, cut from Strep Thermofast 96-well plates (Abgene), are first incubated at room temperature for three hours with 50 µl of at least 40 nM biotinylated target protein in PBS. The coating buffer is thereafter removed and any remaining free biotin-binding sites are blocked with a 15 min pulse of 50 µg/ml biotinylated BSA in PBS. The precoated wells are thereafter three times washed with PBS and then filled with 100 µl of binding buffer C+ (100 mM KCl, 20 mM Tris, 5 mM MgCl_2, 0.05% Tween 20, 0.05 mM EDTA, 1% BSA). Upon completion of the translation reaction the products are diluted in Buffer C+ and applied to the pre-coated and blocked PCR tubes, allowed to bind for 30 min at room temperature and washed 4 times with 150 µl of Buffer C+. […]

[2] = molecular target: scFv(31IJ1)-(KEAAA)6-scArc-HA (Phage P22 / human scFv?); experiment: co-capture on protein A, protein L, fluorescein; with anti-HA 3F10; conditions: tags: N-terminal scFv fusion, C-terminal HA; chain copies: 2 scArc per operator (inferred)
Protocol: In the solution expression experiments 3 µl of 1.7 nM PCR-amplified pIE7aA, pIE7a2A, pIE7a3A, pIE7a4A, pIE7aA-scFv(31IJ1), pIE7a2A-scFv(31 Ul), pIE7a3A-scFv (31IJ1) or pIE7a4A-scFv(31IJ1) template in 0.2 mg/ml tRNA is added to 25 µl EcoPro T7 in vitro translation mix (Novagen), supplemented with 0.75 µl of 100 mM oxidized glutathione (Sigma) and 0.25 µl […] 3F10 αHA mAb (Roche). Each reactions is split into three 9 µl aliquots. Two of the three in vitro translation aliquots of pIE7aA-scFv(31IJ1), pIE7a2A-scFv(31IJ1), pIE7a3A-scFv(31IJ1) or pIE-7a4A-scFv(31IJ1) are immediately combined with the aliquots of pIE7aA, pIE7a2A, pIE7a3A or pIE7a4A expression reactions respectively, one before and the other after the four-hour incubation at 25° C.
During the translation reaction the streptavidin-coated PCR tubes, cut from Strep Thermofast 96-well plates (Abgene), are first incubated at room temperature for three hours with 50 µl of at least 40 nM biotinylated protein A (Sigma), protein L (Pierce) fluorescein (Molecular Probes) of BSA (Sigma) in PBS. The coating buffer is thereafter removed and any remaining free biotin-binding sites are blocked with a 15 min pulse of 50 µg/ml biotinylated BSA in PBS. The pre-coated wells are thereafter three times washed with PBS and then filled with 100 µl of binding buffer C+ (100 mM KCl, 20 mM Tris, 5 mM MgCl2, 0.05% Tween 20, 0.05 mM EDTA, 1% BSA). […]

B1: Arc operator, one copy, on linear genetic element (dsDNA)
DNA 1: ATGATAGAAGCACTCTACTAT
DNA 2: ATAGTAGAGTGCTTCTATCAT
- binding result [1]: binds
- binding result [2]: binds
